Reference: the supplement of paper PMC7125110
± gives the standard error. This sample holds only a part of the variants without activity.

B1: glmS ribozyme (parent)
chain: AUAAAAGCGCCAGAACUACAGAAAUGUAGUUGACGAGGAGGAGGUUUAUCGAAUUUUCGGCGGAUGCCUCCAAA

Experiments:
Conditions in all cases: with glucosamine-6-phosphate
glucosamine-6-phosphate [1] = variants of: B1; assay: self-cleavage kobs at 40 uM GlcN6P; higher = faster cleavage; RNA array
How it was run: (§1)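 Barcoded ribozyme variants on sequenced MiSeq chips were transcribed in situ by E. coli RNA polymerase and followed at 37 °C through a hybridised Cy3 probe. Glucosamine-6-phosphate at 40 μM to 10 mM in HEPES/KCl/Mg(OAc)2 buffer was flowed in, and tiles were imaged over ~14 h. Signals were normalised to baseline and to non-cleaving reference variants, and per-tile medians were fit to one- or two-exponential decays to give kobs. Weighted Michaelis–Menten fits across concentrations gave kcat and KM.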

glucosamine-6-phosphate [2] = variants of: B1; assay: self-cleavage kobs at 160 uM GlcN6P; higher = faster cleavage; RNA array
How it was run: as §1

glucosamine-6-phosphate [3] = variants of: B1; assay: self-cleavage kobs at 10000 uM GlcN6P; higher = faster cleavage; RNA array
How it was run: as §1

glucosamine-6-phosphate [4] = variants of: B1; assay: self-cleavage kobs at 640 uM GlcN6P; higher = faster cleavage; RNA array
How it was run: as §1

glucosamine-6-phosphate [5] = variants of: B1; assay: self-cleavage kobs at 2500 uM GlcN6P; higher = faster cleavage; RNA array
How it was run: as §1

Variant | self-cleavage kobs at 40 uM GlcN6P (glucosamine-6-phosphate [1]) | self-cleavage kobs at 160 uM GlcN6P (glucosamine-6-phosphate [2]) | self-cleavage kobs at 10000 uM GlcN6P (glucosamine-6-phosphate [3]) | self-cleavage kobs at 640 uM GlcN6P (glucosamine-6-phosphate [4]) | self-cleavage kobs at 2500 uM GlcN6P (glucosamine-6-phosphate [5])
AUAAAAGCGCCAGAACUACAGAAAUGUAGUUGACUAGAAGGAGGUUUAUCGAAUUUUCGGCGGAUGCCUCCAAA | < 1e-05 s⁻¹ | < 1e-05 s⁻¹ | < 1e-05 s⁻¹ |  | 
AUAAAAGAGCCAGAACUACAGAAAUGUAGUUGACGUGGAGGAGGUUUAUCGAAUUUUCGGCGGAUGCCUCCAAA | < 1e-05 s⁻¹ | < 1e-05 s⁻¹ | < 1e-05 s⁻¹ | < 1e-05 s⁻¹ | < 1e-05 s⁻¹
AUAAAAGCGCCAGAACUACAGAAAUGUAGUGGACGAGGAGGAGGUUUUUCGAAUUUUCGGCGGAUGCCUCCAAA | < 1e-05 s⁻¹ |  | 5.93e-05 ± 2.1e-05 s⁻¹ |  | 8.46e-05 ± 1.6e-05 s⁻¹
AUAAAAGCGCUAGAACUACAGAAAUGUAGUUCACGGGGAGGAGGUUUAUCGAAUUUUCGGCAGAUGCCUCGAAA | < 1e-05 s⁻¹ |  |  | < 1e-05 s⁻¹ | 
AUAAAAGCGCGAGAACUACAGAAAUGUAGUUGACGAUGAGGAGGUUUAUCGAGUUUUCGGCGGAUGCCUCCAAA | < 1e-05 s⁻¹ |  |  |  | 
AUAAAAGCGCCAGAACUACAGAAAUGUAGUUGACGAGGAGGAGGAUUAUCGAAUUUUCGGCGGAUGCCUUCAAA | 0.00112 ± 0.00012 s⁻¹ | 0.00187 ± 0.00068 s⁻¹ | 0.0102 ± 0.0018 s⁻¹ | 0.00199 ± 0.00047 s⁻¹ | 0.0203 ± 0.0092 s⁻¹
AUAAAAACGCCAGAACUACAGAAAUGUAGUUGACGAGGAGGAGGUUUAUCGAAUUUUCGGCGGAUGUCUCCAAA | < 1e-05 s⁻¹ | < 1e-05 s⁻¹ |  | < 1e-05 s⁻¹ | 
AUAAAAGCGCCCGAACUACAGAAAUGUAGUUGACGAGGAGGAGGUUUAUCGAAUUUUCGGCGAAUGCCUCCAAA | < 1e-05 s⁻¹ | < 1e-05 s⁻¹ | < 1e-05 s⁻¹ | < 1e-05 s⁻¹ | < 1e-05 s⁻¹
AUAAAAGCGCCAGAACUACAGAAAUGUAGUUGACGAGGAGGAAGUUUAUCGAAUUUUCGGCGGAUUCCUCCAAA | < 1e-05 s⁻¹ |  |  |  | < 1e-05 s⁻¹
AUAAAAGCGCCAGAACUACAGAAAUGUAGUUGACAAGGAGAAGGUUUAUCGAAUUUUCGGCGGAUGCCUCCAAA | < 1e-05 s⁻¹ | < 1e-05 s⁻¹ | < 1e-05 s⁻¹ | < 1e-05 s⁻¹ | < 1e-05 s⁻¹
AUAAAAGCGCCAGAACUACAGAAAUGUAGUUGACGAGGAGGAGGUUUAAGGAAUUUUCGGCGGAUGCGUCCAAA | 9.07e-05 ± 3.4e-05 s⁻¹ |  |  |  | 
AUAAAAGCGCCAGAACUACAGAAAUGUACUUGACGCGGAGGAGGUUUACCGAAGUUUCGGCGGAUGCCUCCAAA | < 1e-05 s⁻¹ |  |  |  | 
AUAAAAGCGCCAGAACUACAGAAAUGUAGUUGACGAGAAGGAGGUUUAUCGAAUUUUUGGCGGAUGCCCCCAAA | < 1e-05 s⁻¹ |  | < 1e-05 s⁻¹ |  | 
